According to US7998940B2, “Aptamers to von Willebrand factor and their use as thrombotic disease therapeutics” (Archemix Corp., priority 2004, dated 2011):
Oligonucleotides are written 5' to 3', each unit as a sugar letter and its base; * is a phosphorothioate linkage, no mark a phosphodiester; rarer units and linkages stand in square brackets, end groups in braces. Plain capitals give the bases only. [invdT] = inverted (3'-3') thymidine; d = 2'-deoxy (DNA); m = 2'-O-methyl; r = 2'-OH (RNA); f = 2'-fluoro

Assays:
[1] = test system: full length human vWF (SEQ ID NO 7); test: dot blot KD determination and extent of binding, full length human vWF; conditions: Phase 2 modification; for % binding @ 100 nM vWF: extent of aptamer binding at 100 nM full length human vWF; for Kd: full length human vWF, read-out: KD;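 for all read-outs here: dot blot binding of aptamers to full length human vWF across a protein titration, incubated 30 minutes at room temperature in 1x DPBS with BSA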
[2] = molecular target: human vWF A1 domain (SEQ ID NO 5) (Homo sapiens, UniProt P04275, T1381A); test: 3-point dot blot screen, human vWF A1 domain; format: binding; conditions: rRfY aptamers; 100 nM human vWF A1 domain; ratio of fraction bound with target to fraction bound without target
From the text: (§1) When a significant positive ratio of binding of RNA in the presence of human or rabbit vWF A1 domain versus in the absence of protein was seen, the pools were cloned using the TOPO TA cloning kit (Invitrogen, Cat. #45-0641, Carlsbad, Calif.) according to the manufacturer's instructions. Round 9 and 12 pool templates were cloned and sequenced (125 total sequences), producing 48 unique clones. All unique clones were transcribed, desalted, 5-^32P end-labeled, and assayed in a 3-point dot blot screen (no protein target control, 100 nM human vWF A1 domain (SEQ ID NO 5, FIG. 3), or 100 nM rabbit vWF A1 domain (SEQ ID NO 6, FIG. 3). The data is presented in the third and fourth columns of Table 4 below as the ratio of the fraction of the aptamer bound to the nitrocellulose in the presence of the target protein to the fraction of aptamer bound in the absence of the target protein.
(§2) When a significant positive ratio of binding of RNA in the presence of human or rabbit vWF A1 domain (SEQ ID NOS 4 and 6, respectively) versus in the absence of protein was seen, the pools were cloned using the TOPO TA cloning kit (Invitrogen Cat. #45-0641, Carlsbad, Calif.) according to the manufacturer's instructions. Round 9 and 12 pool templates were cloned and sequenced (185 total sequences), producing 78 unique clones within 3 sequence families. All unique clones were transcribed, desalted, 5-^32P end-labeled, and assayed in a 3-point dot blot screen (no protein target control, 100 nM human vWF A1 domain (SEQ ID NO 5), or 100 nM rabbit vWF A1 domain (SEQ ID NO 6). The data are presented in the third and fourth columns of Table 9 below as the ratio of the fraction of the aptamer bound to the nitrocellulose in the presence of the target protein to the fraction of aptamer bound in the absence of the target protein. Of the three sequence families, members of Family #1 and #2 and two individual, non-family aptamers, bound to both human vWF domain A1 (SEQ ID NO 5) and rabbit vWF domain A1 (SEQ ID NO 6).
(§3) All unique clones were assayed in a 3-point dot blot screen (no protein target control, 100 nM human vWF A1 domain (SEQ ID NO 5), or 100 nM rabbit vWF A1 domain (SEQ ID NO 6). The data are presented in the third and fourth columns of Table 14 below as the ratio of the fraction of the aptamer bound to the nitrocellulose in the presence of the target protein to the fraction of aptamer bound in the absence of the target protein.

[3] = test system: rabbit vWF A1 domain (SEQ ID NO 6); test: 3-point dot blot screen, rabbit vWF A1 domain; format: binding; conditions: rRfY aptamers; 100 nM rabbit vWF A1 domain; ratio of fraction bound with target to without
From the text: as §1, §2, §3
When a significant positive ratio of binding of DNA in the presence of human or rabbit vWF A1 domain versus in the absence of protein was seen, the pools were cloned using the TOPO TA cloning kit (Invitrogen Cat. #45-0641, Carlsbad, Calif.) according to the manufacturer's instructions. Round 7 and 11 pool templates were cloned and sequenced (218 total sequences), producing 146 unique clones within 12 sequence families of which sequences from six families show vWF target binding activity. All unique clones were assayed twice in a 3-point dot blot screen (no protein target control, 20 nM full length human vWF (Calbiochem Cat. #681300, La Jolla, Calif.), or 20 nM rabbit vWF A1 domain. The data is presented in the third and fourth columns of Table 17 below as the ratio of the fraction of the aptamer bound to the nitrocellulose in the presence of the target protein to the fraction of aptamer bound in the absence of the target protein.

rabbit vWF A1 domain (SEQ ID NO 6), sequence (as listed by the source): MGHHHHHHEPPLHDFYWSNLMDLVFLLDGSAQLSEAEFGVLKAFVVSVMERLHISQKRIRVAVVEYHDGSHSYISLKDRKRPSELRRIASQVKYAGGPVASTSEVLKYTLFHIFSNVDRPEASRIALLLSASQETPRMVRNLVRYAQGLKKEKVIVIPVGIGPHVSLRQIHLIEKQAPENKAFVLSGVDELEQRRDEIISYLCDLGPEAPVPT
human vWF A1 domain (SEQ ID NO 5), sequence (P04275 with tags, fused parts or gaps T1381A): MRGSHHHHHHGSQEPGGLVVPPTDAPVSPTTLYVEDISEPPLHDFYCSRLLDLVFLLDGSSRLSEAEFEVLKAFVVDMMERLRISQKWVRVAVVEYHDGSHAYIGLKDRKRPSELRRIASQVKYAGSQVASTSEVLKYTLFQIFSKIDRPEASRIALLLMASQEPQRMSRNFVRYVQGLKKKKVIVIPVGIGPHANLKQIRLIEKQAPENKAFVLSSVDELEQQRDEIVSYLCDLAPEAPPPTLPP

Molecule | % binding @ 100 nM vWF [1] [%] | Kd [1] [nM] | Screen- Human/No Protein [2] | Screen- Rabbit/No Protein [3]
mGmGmCmGmUdGdCdAmGmUmGmCmCmUmUmCmGmGmCdCdGTdGdCdGdGTdGdCdCTdCdCdGTdCmAmCmGmCmC-3T (mGmGmCmGmUdGdCdAmGmUmGmCmCmUmUmCmGmGmCdCdGdTdGdCdGdGdTdGdCdCdTdCdCdGdTdCmAmCmGmCmC[invdT]; aptamer) [ARC1341] | 26 | 22.5 | – | –
mGmGmCmGmUdGdCdAmGmUmGmCmCmUmUmCmGmGmCdCmGTmGdCdGdGTmGmCdCmUdCdCmGmUmCmAmCmGmCmC-3T (mGmGmCmGmUdGdCdAmGmUmGmCmCmUmUmCmGmGmCdCmGdTmGdCdGdGdTmGmCdCmUdCdCmGmUmCmAmCmGmCmC[invdT]; aptamer) [ARC1342] | 33 | 15.6 | – | –
AMX201.B3: rRfY aptamer clone (nucleic acid) rGrGrArGfCrGfCrAfCfUfCrArGfCfCrAfCrArGrArGfCfCfCfUrGrArGfUrGfUrAfUrGrAfUfCrGfCfCrGrArGrAfUfCfUrAfUfCrGrAfUrGfCfUfUfUfUfUfCrGrAfCfCfUfCfUfCfUrGfCfUrArGfC | – | – | 1.69 | 1.64
AMX201.D10: rRfY aptamer clone (nucleic acid) rGrGrArGfCrGfCrAfCfUfCrArGfCfCrAfCrAfCfUrGrArGrGfCfUrGrGrAfUrAfUfCfUrAfCrGrArGrArGrGrArArGfUrGfCfUrGfCfUfUrGrGrAfUfUfUfCrGrAfCfCfUfCfUfCfUrGfCfUrArGfC | – | – | 1.59 | 1.52
AMX201.D4: rRfY aptamer clone (nucleic acid) rGrGrArGfCrGfCrAfCfUfCrArGfCfCrAfCfUrGrGrGrGfCfUrGrAfUfCfUfCrGfCrAfCrGrAfUrArGfUfUfCrGfUrGfUfCrArArGrGrAfUrGfCrGfUfUfUfUfCrGrAfCfCfUfCfUfCfUrGfCfUrArGfC | – | – | 2.23 | 2.46
AMX201.H11: rRfY aptamer clone (nucleic acid) rGrGrArGfCrGfCrAfCfUfCrArGfCfCrAfCfCfCfUrGfUfCrGfUfCfUfUfUfUrGrGfUrArGfUfCrArGfCfCrArArArArGfCfUrArGfUfUrGrGfUfUrGfUfUfUfCrGrAfCfCfUfCfUfCfUrGfCfUrArGfC | – | – | 1.75 | 1.40
AMX201.H4: rRfY aptamer clone (nucleic acid) rGrGrArGfCrGfCrAfCfUfCrArGfCfCrAfCfUrArAfCrGrGfUfUrGrAfUfCfUfCrArGrGrAfCfUrArAfUrArGfUfCrArAfCrArArGrGrAfUrGfCrGfUfUfUfCrGrAfCfCfUfCfUfCfUrGfCfUrArGfC | – | – | 1.79 | 1.86
AMX201.A8: rRfY aptamer clone (nucleic acid) rGrGrArGfCrGfCrAfCfUfCrArGfCfCrAfCrGfCfUrGfUrAfCrAfCfUrGrAfUrGfUfUrGfUrArAfCrAfUrGfUrAfCfCfCfCfCfUrGrGfCfUrGfUfUfUfCrGrAfCfCfUfCfUfCfUrGfCfUrArGfC | – | – | 1.82 | 1.51
AMX201.D3: rRfY aptamer clone (nucleic acid) rGrGrArGfCrGfCrAfCfUfCrArGfCfCrAfCrGfCfCfCrAfCrGfUfCrArArAfUfUrAfUrArGfUfCfUrAfCfUfUfUrGrAfUrGfUrGfCfCfCrGfUrGrGfUfUfUfCrGrAfCfCfUfCfUfCfUrGfCfUrArGfC | – | – | 1.76 | 1.52
AMX201.B11: rRfY aptamer clone (nucleic acid) rGrGrArGfCrGfCrAfCfUfCrArGfCfCrAfCrAfCfCrGrArGrGfCfUrGrGrAfUrAfUfCfUrAfCrGrArGrArGrGrArArGfUrGfCfUrGfCfUfUrGrArAfUfUfUfCrGrAfCfCfUfCfUfCfUrGfCfUrArGfC | – | – | 1.55 | 1.52
